The record followed here is patent US20120165265A1, “Calcium Signaling Modulators Involving STIM and ORAI Proteins” (priority 2009, published 2012).

The assay deals with eGFP-myc-Orai1 (UniProt Q96D31). The assay can be described thus: cell-based or functional assay.
Chain of eGFP-myc-Orai1 (Q96D31 whole entry): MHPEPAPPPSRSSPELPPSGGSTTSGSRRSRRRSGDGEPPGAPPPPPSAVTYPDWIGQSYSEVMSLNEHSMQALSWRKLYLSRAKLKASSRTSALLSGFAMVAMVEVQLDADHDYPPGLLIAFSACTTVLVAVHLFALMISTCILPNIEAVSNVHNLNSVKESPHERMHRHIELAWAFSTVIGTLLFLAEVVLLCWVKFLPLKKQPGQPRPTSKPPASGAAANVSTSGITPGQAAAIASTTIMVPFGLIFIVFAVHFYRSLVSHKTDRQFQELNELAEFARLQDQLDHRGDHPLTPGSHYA

mCh-CAD (from UniProt Q13586 342-448): the diffusion coefficient fitted to FRAP of a single cell expressing eGFP-Orai1 with CAD was 0.026 µm^2/s; the effective diffusion coefficient (D) of GFP-Orai1 co-expressed with CAD, FRAP in HEK 293 cells was determined as 0.036 µm^2/s; the mobile fraction of GFP-Orai1 co-expressed with CAD, FRAP turned out to be 87%; the slowing of Orai1 diffusion by CAD, FRAP is 2 fold.
